Results taken from paper PMC8298264, “Function of cofactor Akirin2 in the regulation of gene expression in model human neutrophil-like HL60 cells” (Bioscience Reports, 2021).

B1: sp¦P40121¦CAPG_HUMAN (protein, UniProt P40121 1-348, looked up)
Macrophage-capping protein: MYTAIPQSGSPFPGSVQDPGLHVWRVEKLKPVPVAQENQGVFFSGDSYLVLHNGPEEVSHLHLWIGQQSSRDEQGACAVLAVHLNTLLGERPVQHREVQGNESDLFMSYFPRGLKYQEGGVESAFHKTSTGAPAAIKKLYQVKGKKNIRATERALNWDSFNTGDCFILDLGQNIFAWCGGKSNILERNKARDLALAIRDSERQGKAQVEIVTDGEEPAEMIQVLGPKPALKEGNPEEDLTADKANAQAAALYKVSDATGQMNLTKVADSSPFALELLISDDCFVLDNGLCGKIYIWKGRKANEKERQAALQVAEGFISRMQYAPNTQVEILPQGHESPIFKQFFKDWK
B2: Eosinophil cationic protein (protein, UniProt P12724 28-160, looked up)
Eosinophil cationic protein: RPPQFTRAQWFAIQHISLNPPRCTIAMRAINNYRWRCKNQNTFLRTTFANVVNVCGNQSIRCPHNRTLNNCHRSRFRVPLLHCDLINPGAQNISNCTYADRPGRRFYVVACDNRDPRDSPRYPVVPVHLDTTI
B3: Serpin B10 (protein, UniProt P48595 1-397, looked up)
Serpin B10: MDSLATSINQFALELSKKLAESAQGKNIFFSSWSISTSLTIVYLGAKGTTAAQMAQVLQFNRDQGVKCDPESEKKRKMEFNLSNSEEIHSDFQTLISEILKPNDDYLLKTANAIYGEKTYAFHNKYLEDMKTYFGAEPQPVNFVEASDQIRKDINSWVERQTEGKIQNLLPDDSVDSTTRMILVNALYFKGIWEHQFLVQNTTEKPFRINETTSKPVQMMFMKKKLHIFHIEKPKAVGLQLYYKSRDLSLLILLPEDINGLEQLEKAITYEKLNEWTSADMMELYEVQLHLPKFKLEDSYDLKSTLSSMGMSDAFSQSKADFSGMSSARNLFLSNVFHKAFVEINEQGTEAAAGSGSEIDIRIRVPSIEFNANHPFLFFIRHNKTNTILFYGRLCSP
B4: sp¦Q9P013¦CWC15_HUMAN (protein, UniProt Q9P013 2-229, looked up)
Spliceosome-associated …: TTAARPTFEPARGGRGKGEGDLSQLSKQYSSRDLPSHTKIKYRQTTQDAPEEVRNRDFRRELEERERAAAREKNRDRPTREHTTSSSVSKKPRLDQIPAANLDADDPLTDEEDEDFEEESDDDDTAALLAELEKIKKERAEEQARKEQEQKAEEERIRMENILSGNPLLNLTGPSQPQANFKVKRRWDDDVVFKNCAKGVDDQKKDKRFVNDTLRSEFHKKFMEKYIK
B5: sp¦P30533¦AMRP_HUMAN (protein, UniProt P30533 35-357, looked up)
Alpha-2-macroglobulin …: YSREKNQPKPSPKRESGEEFRMEKLNQLWEKAQRLHLPPVRLAELHADLKIQERDELAWKKLKLDGLDEDGEKEARLIRNLNVILAKYGLDGKKDARQVTSNSLSGTQEDGLDDPRLEKLWHKAKTSGKFSGEELDKLWREFLHHKEKVHEYNVLLETLSRTEEIHENVISPSDLSDIKGSVLHSRHTELKEKLRSINQGLDRLRRVSHQGYSTEAEFEEPRVIDLWDLAQSANLTDKELEAFREELKHFEAKIEKHNHYQKQLEIAHEKLRHAESVGDGERVSRSREKHALLEGRTKELGYTVKKHLQDLSGRISRARHNEL
B6: sp¦Q15370¦ELOB_HUMAN (protein, UniProt Q15370 1-118, looked up)
Elongin-B: MDVFLMIRRHKTTIFTDAKESSTVFELKRIVEGILKRPPDEQRLYKDDQLLDDGKTLGECGFTSQTARPQAPATVGLAFRADDTFEALCIEPFSSPPELPDVMKPQDSGSSANEQAVQ
B7: sp¦P30740¦ILEU_HUMAN (protein, UniProt P30740 1-379, looked up)
Leukocyte elastase inhibitor: MEQLSSANTRFALDLFLALSENNPAGNIFISPFSISSAMAMVFLGTRGNTAAQLSKTFHFNTVEEVHSRFQSLNADINKRGASYILKLANRLYGEKTYNFLPEFLVSTQKTYGADLASVDFQHASEDARKTINQWVKGQTEGKIPELLASGMVDNMTKLVLVNAIYFKGNWKDKFMKEATTNAPFRLNKKDRKTVKMMYQKKKFAYGYIEDLKCRVLELPYQGEELSMVILLPDDIEDESTGLKKIEEQLTLEKLHEWTKPENLDFIEVNVSLPRFKLEESYTLNSDLARLGVQDLFNSSKADLSGMSGARDIFISKIVHKSFVEVNEEGTEAAAATAGIATFCMLMPEENFTADHPFLFFIRHNSSGSILFLGRFSSP
B8: sp¦O95816¦BAG2_HUMAN (protein, UniProt O95816 2-211, looked up)
BAG family molecular …: AQAKINAKANEGRFCRSSSMADRSSRLLESLDQLELRVEALREAATAVEQEKEILLEMIHSIQNSQDMRQISDGEREELNLTANRLMGRTLTVEVSVETIRNPQQQESLKHATRIIDEVVNKFLDDLGNAKSHLMSLYSACSSEVPHGPVDQKFQSIVIGCALEDQKKIKRRLETLLRNIENSDKAIKLLEHSKGAGSKTLQQNAESRFN
B9: Annexin A5 (protein, UniProt P08758 2-320, looked up)
Annexin A5: AQVLRGTVTDFPGFDERADAETLRKAMKGLGTDEESILTLLTSRSNAQRQEISAAFKTLFGRDLLDDLKSELTGKFEKLIVALMKPSRLYDAYELKHALKGAGTNEKVLTEIIASRTPEELRAIKQVYEEEYGSSLEDDVVGDTSGYYQRMLVVLLQANRDPDAGIDEAQVEQDAQALFQAGELKWGTDEEKFITIFGTRSVSHLRKVFDKYMTISGFQIEETIDRETSGNLEQLLLAVVKSIRSIPAYLAETLYYAMKGAGTDDHTLIRVMVSRSEIDLFNIRKEFRKNFATSLYSMIKGDTSGDYKKALLLLCGEDD
B10: sp¦P04080¦CYTB_HUMAN (protein, UniProt P04080 1-98, looked up)
Cystatin-B: MMCGAPSATQPATAETQHIADQVRSQLEEKENKKFPVFKAVSFKSQVVAGTNYFIKVHVGDEDFVHLRVFQSLPHENKPLTLSNYQTNKAKHDELTYF
B11: sp¦P13693¦TCTP_HUMAN (protein, UniProt P13693 1-172, looked up)
Translationally-controlled …: MIIYRDLISHDEMFSDIYKIREIADGLCLEVEGKMVSRTEGNIDDSLIGGNASAEGPEGEGTESTVITGVDIVMNHHLQETSFTKEAYKKYIKDYMKSIKGKLEEQRPERVKPFMTGAAEQIKHILANFKNYQFFIGENMNPDGMVALLDYREDGVTPYMIFFKDGLEMEKC
B12: sp¦O75368¦SH3L1_HUMAN (protein, UniProt O75368 1-114, looked up)
Adapter SH3BGRL: MVIRVYIASSSGSTAIKKKQQDVLGFLEANKIGFEEKDIAANEENRKWMRENVPENSRPATGYPLPPQIFNESQYRGDYDAFFEARENNAVYAFLGLTAPPGSKEAEVQAKQQA
B13: sp¦O43633¦CHM2A_HUMAN (protein, UniProt O43633 1-222, looked up)
Charged multivesicular body …: MDLLFGRRKTPEELLRQNQRALNRAMRELDRERQKLETQEKKIIADIKKMAKQGQMDAVRIMAKDLVRTRRYVRKFVLMRANIQAVSLKIQTLKSNNSMAQAMKGVTKAMGTMNRQLKLPQIQKIMMEFERQAEIMDMKEEMMNDAIDDAMGDEEDEEESDAVVSQVLDELGLSLTDELSNLPSTGGSLSVAAGGKKAEAAASALADADADLEERLKNLRRD
B14: sp¦P08246¦ELNE_HUMAN (protein, UniProt P08246 30-267, looked up)
Neutrophil elastase: IVGGRRARPHAWPFMVSLQLRGGHFCGATLIAPNFVMSAAHCVANVNVRAVRVVLGAHNLSRREPTRQVFAVQRIFENGYDPVNLLNDIVILQLNGSATINANVQVAQLPAQGRRLGNGVQCLAMGWGLLGRNRGIASVLQELNVTVVTSLCRRSNVCTLVRGRQAGVCFGDSGSPLVCNGLIHGIASFVRGGCASGLYPDAFAPVAQFVNWIDSIIQRSEDNPCPHPRDPDPASRTH
B15: sp¦Q9Y2Z0¦SGT1_HUMAN (protein, UniProt Q9Y2Z0 2-365, looked up)
Protein SGT1 homolog: AAAAAGTATSQRFFQSFSDALIDEDPQAALEELTKALEQKPDDAQYYCQRAYCHILLGNYCVAVADAKKSLELNPNNSTAMLRKGICEYHEKNYAAALETFTEGQKLDIETGFHRVGQAGLQLLTSSDPPALDSQSAGITGADANFSVWIKRCQEAQNGSESEVWTHQSKIKYDWYQTESQVVITLMIKNVQKNDVNVEFSEKELSALVKLPSGEDYNLKLELLHPIIPEQSTFKVLSTKIEIKLKKPEAVRWEKLEGQGDVPTPKQFVADVKNLYPSSSPYTRNWDKLVGEIKEEEKNEKLEGDAALNRLFQQIYSDGSDEVKRAMNKSFMESGGTVLSTNWSDVGKRKVEINPPDDMEWKKY
B16: Hematopoietic lineage cell-specific protein (protein, UniProt P14317 1-486, looked up)
Hematopoietic lineage …: MWKSVVGHDVSVSVETQGDDWDTDPDFVNDISEKEQRWGAKTIEGSGRTEHINIHQLRNKVSEEHDVLRKKEMESGPKASHGYGGRFGVERDRMDKSAVGHEYVAEVEKHSSQTDAAKGFGGKYGVERDRADKSAVGFDYKGEVEKHTSQKDYSRGFGGRYGVEKDKWDKAALGYDYKGETEKHESQRDYAKGFGGQYGIQKDRVDKSAVGFNEMEAPTTAYKKTTPIEAASSGTRGLKAKFESMAEEKRKREEEEKAQQVARRQQERKAVTKRSPEAPQPVIAMEEPAVPAPLPKKISSEAWPPVGTPPSSESEPVRTSREHPVPLLPIRQTLPEDNEEPPALPPRTLEGLQVEEEPVYEAEPEPEPEPEPEPENDYEDVEEMDRHEQEDEPEGDYEEVLEPEDSSFSSALAGSSGCPAGAGAGAVALGISAVAVYDYQGEGSDELSFDPDDVITDIEMVDEGWWRGRCHGHFGLFPANYVKLLE
B17: sp¦P24534¦EF1B_HUMAN (protein, UniProt P24534 2-225, looked up)
Elongation factor 1-beta: GFGDLKSPAGLQVLNDYLADKSYIEGYVPSQADVAVFEAVSSPPPADLCHALRWYNHIKSYEKEKASLPGVKKALGKYGPADVEDTTGSGATDSKDDDDIDLFGSDDEEESEEAKRLREERLAQYESKKAKKPALVAKSSILLDVKPWDDETDMAKLEECVRSIQADGLVWGSSKLVPVGYGIKKLQIQCVVEDDKVGTDMLEEQITAFEDYVQSMDVAAFNKI

System: human HL60 cells
Assay: SWATH-MS proteomics, differential protein representation, akirin2 KO vs WT HL60 cells
Type: cell-based
Conditions: SWATH-MS, akirin2 KO vs WT HL60 cells; over-represented in KO
Summary of the method: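 Three biological replicates per genotype; 150 µg protein FASP/trypsin digested; IDA library (3 µg digest); SWATH variable windows, 5 µg/sample, 3.6 s cycle; gradient 5–30% B 120 min then 30–60% B 15 min; 1% global FDR; TAS normalization.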

Row | Molecule | Fold Change | Log (Fold Change)
1 | B1 | 1.617 | 0.2088
2 | B2 | 5.495 | 0.7399
3 | B3 | 1.749 | 0.2428
4 | B4 | 1.692 | 0.2285
5 | B5 | 1.604 | 0.2053
6 | B6 | 1.578 | 0.1982
7 | B7 | 1.651 | 0.2178
8 | B8 | 1.58 | 0.1985
9 | B9 | 1.702 | 0.231
10 | B10 | 1.628 | 0.2117
11 | B11 | 1.634 | 0.2132
12 | B12 | 1.672 | 0.2233
13 | B13 | 1.663 | 0.2209
14 | B14 | 1.634 | 0.2132
15 | B15 | 1.579 | 0.1983
16 | B16 | 1.764 | 0.2466
17 | B17 | 1.59 | 0.2013
